Results published in IntAct's records for PubMed 15358143.

Target: ppia_human PPIA (UniProt P62937)
Sequence (P62937 whole entry, looked up): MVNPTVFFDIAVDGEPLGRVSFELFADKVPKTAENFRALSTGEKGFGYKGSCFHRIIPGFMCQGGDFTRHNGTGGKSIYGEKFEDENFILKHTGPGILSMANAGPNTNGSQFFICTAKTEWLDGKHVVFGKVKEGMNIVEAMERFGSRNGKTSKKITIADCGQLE

Substance	effect of a mutation on the interaction
Nucleoprotein (Human SARS coronavirus), P59595 I305A	decreasing interaction strength
Nucleoprotein (Human SARS coronavirus), P59595 Q307A	decreasing interaction strength
Nucleoprotein (Human SARS coronavirus), P59595 Q307D	decreasing interaction strength
Nucleoprotein (Human SARS coronavirus), P59595 W302A	decreasing interaction strength
